The record followed here is patent publication US20190338048A1.

By pKd is commonly meant the Kd on a negative log10 scale, so that one unit is a factor of ten.

pKd: −log10 of the molar value. “And” between values parts separate entries of the source, which are not always exact repeats. Identical values can stand only once. Like-named read-outs stand apart in the source and are kept apart here.

Experiment [1] addresses Recombinant human IL-17A (human) (UniProt Q16552). The experiment can be described thus: SPR.
For experiment [2] the target is unchanged. The experiment can be described thus: SPR. This is another data set of the same source. For orientation: Surface plasmon resonance follows binding to a sensor surface in real time, without labels.
The target is the same in experiment [3]. The experiment is described as follows: SPR, IL-17A immobilised, Fab as analyte.
Experiment [4] shares this target. The experiment can be described thus: SPR. The source holds these as a separate data set.
In experiment [5] the target is CR8071 lambda light chain E124Q_T131R (L1 of designs 3971, 3972 and 3987, system C). The experiment can be described thus: SMCA: H1, L1, H2, L2 co-expressed, protein A, LC-MS.
Experiment [6] has as its target CR8071 lambda light chain L1 E124Q_T131R (designs 3971 and 3972, System C). The description is as above.
The target of experiment [7] is CR8071 lambda light chain L1 with E124Q_T131K. The experiment is described as follows: SMCA System C: four chains co-expressed, protein A, LC-MS.
Experiment [8] deals with Pertuzumab kappa light chain S131K_L135K. The experiment is described as follows: LCCA, SPR tag read-out.
Experiment [9] addresses Pertuzumab kappa light chain S131R_V133G_S176R_T178A (L2), HA-tagged. The experiment is described as follows: LCCA, SPR of light-chain tags.
In experiment [10] the target is Pertuzumab kappa light chain S131K_V133G_S176R_T178A (L2), HA-tagged. The experiment is described as follows: LCCA, SPR of light-chain tags.
In experiment [11] the target is Pertuzumab kappa light chain S131R_V133G_S176R_T178A (L2), HA-tagged. The experiment is described as follows: LCCA, SPR of light-chain tags. This is another data set of the same source.
Experiment [12] addresses Pertuzumab kappa light chain V133G_S176R_T178A (L2), HA-tagged. The experiment is described as follows: LCCA, SPR of light-chain tags.
Experiment [13] deals with Pertuzumab kappa light chain V133A_S176K_T178A (L2), HA-tagged. The experiment is described as follows: LCCA, SPR of light-chain tags.
Experiment [14] deals with Pertuzumab kappa light chain V133G_S176R_T178A (L2), HA-tagged. The experiment can be described thus: LCCA, SPR of light-chain tags. The source holds these as a separate data set.
Experiment [15] addresses Pertuzumab kappa light chain V133A_S176K_T178A (L2), HA-tagged. The experiment can be described thus: LCCA, SPR of light-chain tags. This is another data set of the same source.
Experiment [16] addresses Pertuzumab kappa light chain Q124E_V133D_L135A. The experiment is described as follows: LCCA, SPR tag read-out.
The target of experiment [17] is Pertuzumab kappa light chain L135A (L2), N-terminal HA tag. The experiment can be described thus: LCCA, SPR of light chain tags.
Experiment [18] addresses Pertuzumab kappa light chain, wild type (L2), N-terminal HA tag. The experiment can be described thus: LCCA, SPR of light chain tags.
The target of experiment [19] is CAT-2200 lambda light chain T116F_S176F (L1), N-terminal FLAG tag. The experiment is described as follows: LCCA, SPR of light chain tags.
Experiment [20] deals with Pertuzumab kappa light chain L135A (L2), N-terminal HA tag. The experiment is described as follows: LCCA, SPR of light chain tags. This is another data set of the same source.
Experiment [21] addresses Pertuzumab kappa light chain T178F (L2), N-terminal HA tag. The experiment can be described thus: LCCA, SPR of light chain tags.
Experiment [22] deals with Pertuzumab kappa light chain Q124E_V133D (L2), N-terminal HA tag. The experiment can be described thus: LCCA, SPR of light chain tags.
The target is the same in experiment [23]. The experiment can be described thus: LCCA, SPR of light chain tags. This is another data set of the same source.
Experiment [24] has as its target CAT-2200 lambda light chain S176K_Y178R (L1), N-terminal FLAG tag. The experiment is described as follows: LCCA, SPR of light chain tags.
Experiment [25] addresses CAT-2200 lambda light chain S176K_Y178K (L1), N-terminal FLAG tag. The experiment can be described thus: LCCA, SPR of light chain tags.
Experiment [26] addresses Pertuzumab kappa light chain Q124E_V133D (L2), N-terminal HA tag. The experiment can be described thus: LCCA, SPR of light chain tags. This is another data set of the same source.
The target of experiment [27] is Pertuzumab kappa light chain Q124E_Q160E_T180E (L2), N-terminal HA tag. The experiment is described as follows: LCCA, SPR of light chain tags.
The target is the same in experiment [28]. The experiment can be described thus: LCCA, SPR of light chain tags. This is another data set of the same source.
Experiment [29] has as its target CAT-2200 lambda light chain S176K_Y178L (L1), N-terminal FLAG tag. The experiment can be described thus: LCCA, SPR of light chain tags.
The target of experiment [30] is Pertuzumab kappa light chain Q124E_Q160E_T180E (L2), N-terminal HA tag. The experiment is described as follows: LCCA, SPR of light chain tags. The source holds these as a separate data set.
In experiment [31] the target is Recombinant HER2 protein (HER2-ECD) (UniProt P04626). The experiment can be described thus: SPR, Fab captured via anti-penta-His, HER2 as analyte.
The target is the same in experiment [32]. The experiment can be described thus: SPR.

“CAT-2200 Fab heterodimer (H1L1) with H1 S188K and L1 S176D_Y178E”: in experiment [1], the Change in KD of H1L1 Fab vs wild type is -0.13; the Change in KD of H1L1 Fab vs wild type, -(log(KD design)-log(KD wt)) is -0.13; the pKd was 9.43. For the same substance, the pKd in experiment [2] is 9.43.
Regarding “CAT-2200 Fab heterodimer (H1L1) with H1 S188K and L1 S176E_Y178E”, the Change in KD of H1L1 Fab vs wild type in experiment [1] is -0.12. Moreover, the pKd in experiment [2] was 9.44.
Taken in the same sequence, the figures for “CAT-2200 Fab heterodimer (H1L1) with H1 V177I_S188K and L1 V133I_S176D_Y178E” were 0.08 and 9.64.
“CAT-2200 designed Fab heterodimer H1L1: H1 L143E_K145T_Q179E / L1 E124Q_T131R”: in experiment [1], the Change in KD of H1L1 Fab vs wild type is -0.14. The pKd in experiment [3] is 9.54.
With “CAT-2200 designed Fab heterodimer H1L1: H1 L143K / L1 K129T_V133D”, in experiment [1], the Change in KD of H1L1 Fab vs wild type was -0.09. Further, the pKd in experiment [3] was 9.59.
On the same counts, the results for “CAT-2200 designed Fab heterodimer H1L1: H1 Q179K / L1 K129T_S180E” are -0.056 and 9.62.
Take “CAT-2200 designed Fab heterodimer H1L1: H1 S186R / L1 K129T_S180E”: the Change in KD of H1L1 Fab vs wild type in [1] is -0.088. Moreover, the pKd in experiment [3] is 9.59.
As for “CAT-2200 wild type one-armed antibody (OAA), FLAG-tagged light chain”, the values for the pKd in [1] and in experiment [4] were 9.43 and 9.44, respectively.
On the same counts, the results for “CAT-2200 wild type one-armed antibody (OAA), HA-tagged light chain” are 9.43 and 9.46.
Taken in the same sequence, the figures for “CAT-2200 wild type one-armed antibody (OAA), no tags” were 9.55 and 9.54.
Take “CR8071 heavy chain A139W_L143D_K145T (H1 of designs 3972 and 3987, system C)”: in experiment [5], the % H1L1 Pairing was 92.8% and 99.2%; the Change in % H1L1 Pairing with respect to wild type was 44.4% and 50.8%.
Turning to “CR8071 heavy chain H1 A139W_L143D_K145T (design 3972, System C)”, in experiment [6], the % H1L1 Pairing was 92.8% and the Change in % H1L1 Pairing with respect to wild type turned out to be 44.4%.
Taken in the same sequence, the figures for “CR8071 heavy chain H1 L143D_K145T (design 3971, System C)” were 89% and 40.6%.
In experiment [7], CR8071 heavy chain H1 with L143D_K145T came in with a % H1L1 Pairing of 79.7% and a Change in % H1L1 Pairing with respect to wild type of 11.6%.
As to “CR8071 heavy chain H1 with L143E_K145T_Q179E”, in [7], the % H1L1 Pairing stood at 84.7% and the Change in % H1L1 Pairing with respect to wild type is 36.3%.
In the case of “CR8071 heavy chain L143D_K145T (H1 of design 3971, system C)”, in [5], the % H1L1 Pairing is 89% and the Change in % H1L1 Pairing with respect to wild type stood at 40.6%.
As for Pertuzumab Fab heavy chain L124E_K145T, the H2L2:H2L1 median scalar value in experiment [8] is 0.85 ln(ratio).
With “Pertuzumab Fab heavy chain L124E_K145T_Q179E_S186I_S188W (H2)”, the H2L2:H2L1 normalized median scalar value ln(r1/f1) worked out at 1.24 in experiment [9], 0.9 in experiment [10] and 1.55 in experiment [11].
Take “Pertuzumab Fab heavy chain L124E_S186I_S188W (H2)”: the H2L2:H2L1 normalized median scalar value ln(r1/f1) in [12] was 0.94; in experiment [13], 0.65; in experiment [14], 1.19; in experiment [15], 1.03.
On to “Pertuzumab Fab heavy chain L143I_S186K_V190F”, for which the H2L2:H2L1 median scalar value in experiment [16] was -0.49 ln(ratio).
On to “Pertuzumab Fab heavy chain L143I_V190F (H2), ABD2-His6 tagged”, for which the H2L2:H2L1 normalized median ratio in [17] was found to be 46%; in experiment [18], 62%; in [19], 38%; in experiment [20], 49%; in [21], 65%. The H2L2:H2L1 normalized median scalar value ln(r1/f1) is -0.16 in [17], 0.49 in [18], -0.04 in experiment [20] and 0.62 in experiment [21].
For the substance “Pertuzumab Fab heavy chain L143R (H2), ABD2-His6 tagged”, the H2L2:H2L1 normalized median ratio stood at 86% in experiment [22]; 79% in experiment [23]; 14% in experiment [24]; 21% in [25]; 82% in [26]. Further, the H2L2:H2L1 normalized median scalar value ln(r1/f1) in experiment [22] was 1.84; in [23] it was 1.3; in experiment [26], 1.53.
Regarding Pertuzumab Fab heavy chain L143R_V190F, the H2L2:H2L1 median scalar value in [16] is 1.25 ln(ratio).
“Pertuzumab Fab heavy chain Q179K (H2), ABD2-His6 tagged”: the H2L2:H2L1 normalized median ratio in [27] is 96%; in experiment [28], 91%; in experiment [24], 4%; in experiment [25] it was 9%; in experiment [29], 13%; in [30] it was 87%. In addition, the H2L2:H2L1 normalized median scalar value ln(r1/f1) in [27] was determined as 3.21; in [28], 2.33; in experiment [30], 1.88.
As to Pertuzumab Fab heavy chain S186K_V190F, in [16], the H2L2:H2L1 median scalar value is -0.45 ln(ratio).
As for “Pertuzumab Fab heavy chain S186R (H2), ABD2-His6 tagged”, the H2L2:H2L1 normalized median ratio in experiment [27] was 97%; in experiment [28], 96%; in experiment [25], 4%; in experiment [29], 11%; in experiment [30], 89%. The H2L2:H2L1 normalized median scalar value ln(r1/f1) was found to be 3.46 in experiment [27], 3.29 in experiment [28] and 2.07 in [30].
As for “Pertuzumab designed Fab heterodimer H2L2: H2 L45P_L124E_K145T_Q179E / L2 P44F_S131R_V133G_S176R”, the pKd in experiment [31] is 8.24.
As to “Pertuzumab designed Fab heterodimer H2L2: H2 L45P_L143E_K145T_Q179E / L2 P44F_Q124K_T178R”, the pKd in [31] is 8.22.
For the substance “Pertuzumab designed Fab heterodimer H2L2: H2 Q39E_L124E_K145T_Q179E / L2 Q38R_S131R_V133G_S176R”, the Change in KD of H2L2 Fab vs wild type in [32] is -0.0084. In addition, the pKd in experiment [31] is 8.10.
On the same counts, the results for “Pertuzumab designed Fab heterodimer H2L2: H2 Q39E_L143E_K145T_Q179E / L2 Q38R_Q124K_T178R” are 0.023 and 8.13.
